Measurements as given in publication PMC3439906.

Target: M.EcoKI MTase (M2S1 methyltransferase core of the EcoKI Type I RM system) (E. coli K12) (UniProt P08957)
Assay: ITC

UniProt P08957, sequence (P08957 whole entry, chain 1 of 2): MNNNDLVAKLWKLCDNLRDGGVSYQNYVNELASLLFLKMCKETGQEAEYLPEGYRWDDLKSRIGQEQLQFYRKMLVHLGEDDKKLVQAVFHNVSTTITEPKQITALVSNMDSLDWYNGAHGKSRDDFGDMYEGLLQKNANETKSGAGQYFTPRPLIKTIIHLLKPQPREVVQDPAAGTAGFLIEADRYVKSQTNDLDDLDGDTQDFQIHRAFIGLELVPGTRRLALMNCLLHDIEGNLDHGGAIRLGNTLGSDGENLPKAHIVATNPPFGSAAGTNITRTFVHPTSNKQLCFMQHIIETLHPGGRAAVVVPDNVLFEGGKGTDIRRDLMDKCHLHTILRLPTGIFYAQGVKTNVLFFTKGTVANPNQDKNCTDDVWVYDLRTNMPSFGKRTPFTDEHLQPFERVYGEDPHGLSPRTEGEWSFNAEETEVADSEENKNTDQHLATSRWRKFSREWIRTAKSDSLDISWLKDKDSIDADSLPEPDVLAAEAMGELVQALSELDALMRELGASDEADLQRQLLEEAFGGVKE
UniProt P08957, sequence (P05719 whole entry, chain 2 of 2, further chain): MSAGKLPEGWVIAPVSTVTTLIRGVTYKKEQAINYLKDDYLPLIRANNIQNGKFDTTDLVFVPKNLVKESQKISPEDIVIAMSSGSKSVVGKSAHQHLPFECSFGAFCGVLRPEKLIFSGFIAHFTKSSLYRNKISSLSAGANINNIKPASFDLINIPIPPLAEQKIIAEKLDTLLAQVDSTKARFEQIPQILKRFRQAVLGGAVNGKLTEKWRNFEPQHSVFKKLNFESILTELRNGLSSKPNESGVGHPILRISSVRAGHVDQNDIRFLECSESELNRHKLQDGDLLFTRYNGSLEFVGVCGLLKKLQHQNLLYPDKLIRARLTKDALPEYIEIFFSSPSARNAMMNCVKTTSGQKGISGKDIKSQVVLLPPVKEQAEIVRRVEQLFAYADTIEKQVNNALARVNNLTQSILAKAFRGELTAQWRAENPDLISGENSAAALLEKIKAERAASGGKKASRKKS

Ocr/POcr (natural protein)
dH: -15.3 kcal/mol
stoichiometry N (Ocr dimers per M.EcoKI): 0.89
